Measurements published in US20150266925A1 (COMPLIX, published 2015).

How the values were obtained:
[1] = molecular target: T1, human IL-23 (human, UniProt Q9NPF7 20-189; P29460 23-328); test: standard equilibrium ELISA
T1 construct: Bought recombinant heterodimeric cytokine (eBioscience 34-8239-85 for panning; R&D Systems for the splenocyte assay); also called hIL-23; hIL23
T1 sequence (looked up) 1: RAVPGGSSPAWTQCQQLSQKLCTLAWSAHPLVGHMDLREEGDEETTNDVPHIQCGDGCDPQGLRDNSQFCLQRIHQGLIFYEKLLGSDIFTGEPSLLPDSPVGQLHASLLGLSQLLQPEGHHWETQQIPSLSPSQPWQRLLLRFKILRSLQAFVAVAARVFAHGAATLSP
T1 sequence (looked up) 2: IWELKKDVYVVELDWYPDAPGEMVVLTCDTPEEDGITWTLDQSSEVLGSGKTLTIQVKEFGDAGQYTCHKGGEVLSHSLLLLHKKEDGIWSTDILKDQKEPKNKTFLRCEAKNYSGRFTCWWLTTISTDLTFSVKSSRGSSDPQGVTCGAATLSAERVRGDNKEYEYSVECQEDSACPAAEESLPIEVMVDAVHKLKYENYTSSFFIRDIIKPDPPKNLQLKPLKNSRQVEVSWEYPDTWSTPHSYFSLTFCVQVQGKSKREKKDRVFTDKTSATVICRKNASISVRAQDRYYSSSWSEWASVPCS

[2] = molecular target: T1, human IL-23; test: cell-based or functional assay
[3] = molecular target: T1, human IL-23; test: standard equilibrium ELISA, soluble polypeptide; MA12
[4] = molecular target: T1, human IL-23; test: kinetic ELISA, soluble polypeptide
[5] = molecular target: T1, human IL-23; test: phage-coated ELISA, clone displayed on phage
[6] = molecular target: T1, human IL-23; test: equilibrium ELISA, soluble polypeptide

factor better than the non-matured variant C159 [1]: 38 fold | functional KD (DB fKD), DB cell assay: Stat3 phosphorylation induced by human IL-23; n data = 2 [2]: 0.35 nM | functional KD (Spleno fKD), mouse splenocyte assay: IL-17 production induced by human IL-23; n data = 5 [2]: 0.13 nM | Kd [3]: 0.1 nM | Kd [4]: 0.26 nM | koff [4]: 0.00021 s⁻¹ | kon [4]: 810000 M⁻¹ s⁻¹ | Kd [5]: 0.08 nM | Kd [6]: 0.11 nM
B1: MA12 (designed binder)
chain: MSIQEIQKEIAQIQAVIAGIQKYIYTMTGGSGGSGGGGSGGSGGMSIEEIQKQIAAIQCQIAAIQKQIYAMTGSGGGGSGGSGGGGSGMSIEEIQKQIAAIQEQILAIYKQIMAMVT
notes: also called MAl2
